T1: MBP-Ltl1 (Tetrahymena thermophila) (UniProt I7MGR7)
T1 sequence: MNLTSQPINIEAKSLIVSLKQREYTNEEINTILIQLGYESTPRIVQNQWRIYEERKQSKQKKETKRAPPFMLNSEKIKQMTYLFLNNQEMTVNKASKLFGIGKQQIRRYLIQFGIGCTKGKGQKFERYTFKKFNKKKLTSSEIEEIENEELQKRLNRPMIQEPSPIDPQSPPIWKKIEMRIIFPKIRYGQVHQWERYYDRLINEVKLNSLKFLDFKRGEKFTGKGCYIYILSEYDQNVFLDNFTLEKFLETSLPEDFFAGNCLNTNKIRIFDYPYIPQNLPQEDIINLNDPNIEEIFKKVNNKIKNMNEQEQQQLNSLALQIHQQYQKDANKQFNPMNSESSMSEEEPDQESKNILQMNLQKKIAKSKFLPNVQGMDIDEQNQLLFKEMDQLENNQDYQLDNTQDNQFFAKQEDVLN

T2: MBP-Ltl1 (Tetrahymena thermophila, UniProt I7MGR7 1-417)
T2 sequence: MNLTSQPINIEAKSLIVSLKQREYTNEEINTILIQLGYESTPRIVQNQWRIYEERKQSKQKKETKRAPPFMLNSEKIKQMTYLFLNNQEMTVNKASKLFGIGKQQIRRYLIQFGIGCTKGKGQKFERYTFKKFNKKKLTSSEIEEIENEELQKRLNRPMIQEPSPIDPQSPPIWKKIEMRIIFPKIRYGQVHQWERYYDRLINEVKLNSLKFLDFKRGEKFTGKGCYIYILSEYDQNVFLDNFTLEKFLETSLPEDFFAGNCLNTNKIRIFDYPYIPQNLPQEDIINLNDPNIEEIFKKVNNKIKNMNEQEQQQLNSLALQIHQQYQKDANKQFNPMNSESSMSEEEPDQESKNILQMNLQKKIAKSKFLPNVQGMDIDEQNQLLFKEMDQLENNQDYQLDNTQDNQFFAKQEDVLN


How the values were obtained:
[1] = target: T1, MBP-Ltl1 (Tetrahymena thermophila); test: EMSA; details: EMSA as in Carle et al. (ref 20), binding buffer and temperature not given; probes annealed in 10 mM Tris pH 7.5, 5% glycerol, 100 mM KCl; protein dialyzed in …
MBP-Ltl1 [2] = target: T2, MBP-Ltl1; test: EMSA; majority of probe in G-quadruplex form; EMSA as in Carle et al. (ref 20), binding buffer and temperature not given; probes annealed in 10 mM Tris pH 7.5, 5% glycerol, 100 mM KCl; protein dialyzed in 50 mM Tris pH 7.5, 100 mM KCl, 10% glycerol, 1 mM MnSO4, 1 mM MgCl2, 1 mM ZnSO4; details: protein: recombinant; MBP (pMAL fusion); label: 5' 32P
MBP-Ltl1 [3] = target: T2, MBP-Ltl1; test: EMSA; EMSA as in Carle et al. (ref 20), binding buffer and temperature not given; probes annealed in 10 mM Tris pH 7.5, 5% glycerol, 100 mM KCl; protein dialyzed in 50 mM Tris pH 7.5, 100 mM KCl, 10% glycerol, 1 mM MnSO4, 1 mM MgCl2, 1 mM ZnSO4; details: protein: recombinant; MBP (pMAL fusion); label: 5' 32P; blunt

Molecule | Kd [1] [nM] | Kd (MBP-Ltl1 [3]) [nM] | other results
GAAATTAATATAATTATAATTTTAAACAGTGTAAAACCCAAAAAGCTA (double strand) [R IES left flank -40/-88 ds (R_IES_EMSA_probe2)] | 350 |  | 
TTATTTGATTAATTAATTTTATTTACGGTAAAGGTTTATATATTAAGGCCACAATATAC (double strand) [D IES left flank -30/-88 ds (IESD_EMSA_probe1)] | 350 |  | 
TTTATTAATCAAAAAGGGGGTAAATAATAA (structured_DNA) [M IES left flank G4 (M1_A5G5_FW)] |  |  | Kd (MBP-Ltl1 [2]): ~350 nM
D IES right flank -67/-120 (IESD_EMSA_R-67/120) (dsDNA) DNA 1: TTTGAATCCTAAGATTCTACTTTATTTAGCATTTTTTATATTAAGTAATTTA DNA 2: TAAATTACTTAATATAAAAAATGCTAAATAAAGTAGAATCTTAGGATTCAAA |  | ~42.5 | 
D IES left flank -70/-120 (IESD_EMSA_L-70/120) (dsDNA) DNA 1: AAAATTTATATATATTTGAATCCTAAGATTCTGTCTTATTTGATTAATTAA DNA 2: TTAATTAATCAAATAAGACAGAATCTTAGGATTCAAATATATATAAATTTT |  | ~43 | 
